We go through 1 molecule from patent US20230312722A1 (NONA BIOSCIENCES SUZHOU, published 2023).

For orientation: EC50 means the midpoint of the concentration-response curve. High values mean lower potency in that assay, low ones higher potency in that assay.

For assay [1], the target named is T1, B7-H4 (Acro Biosystems, #B74-H82E2) (UniProt Q7Z7D3 29-258).
T1 construct: Bought protein; also called B7-H4 captured on SA sensor
T1 sequence (looked up): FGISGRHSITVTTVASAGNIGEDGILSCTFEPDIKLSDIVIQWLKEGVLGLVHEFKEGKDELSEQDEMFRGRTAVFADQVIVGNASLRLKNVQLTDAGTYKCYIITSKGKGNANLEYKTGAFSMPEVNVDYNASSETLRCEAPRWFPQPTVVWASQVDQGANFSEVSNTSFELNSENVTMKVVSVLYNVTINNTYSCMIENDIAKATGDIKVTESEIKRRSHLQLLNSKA
The assay can be described thus: BLI epitope competition; 1st Ab = row; competitor (2nd Ab) PR002421; inhibition of the 2nd Ab signal. As to the method:
Step one, acquisition of 100% signal of antibodies: B7-H4 (Acro Biosystems, #B74-H82E2-200 μg) was captured at a capture height of 0.25 nm using an SA sensor (Fortebio, #18-5019). The sensor was equilibrated in a buffer for 120 s and then immersed in each antibody diluted to 100 nM for 240 s, and the final signal of the antibody binding to B7-H4 was recorded as the 100% signal of the antibody. Step two, epitope competition experiment: B7-H4 was captured using an SA sensor at a capture height of 0.25 nm. The sensor was immersed in a primary antibody (at a concentration of 100 nM) for 240 s, and then the SA sensor was immersed in a mixture of the primary and secondary antibodies (both at a final concentration of 100 nM) for 240 s, and the difference in signals after immersion of the sensor in the antibody mixture was recorded as the signal of the antibody as the secondary antibody. The inhibition rate was calculated according to the following formula: […]

Assay [2] addresses T2, human B7H4 on the cell surface (human, UniProt Q7Z7D3 25-282).
T2 construct: whole, on cells; also called CHOK1/hu B7H4; B7H4 on SK-BR-3
T2 sequence (looked up): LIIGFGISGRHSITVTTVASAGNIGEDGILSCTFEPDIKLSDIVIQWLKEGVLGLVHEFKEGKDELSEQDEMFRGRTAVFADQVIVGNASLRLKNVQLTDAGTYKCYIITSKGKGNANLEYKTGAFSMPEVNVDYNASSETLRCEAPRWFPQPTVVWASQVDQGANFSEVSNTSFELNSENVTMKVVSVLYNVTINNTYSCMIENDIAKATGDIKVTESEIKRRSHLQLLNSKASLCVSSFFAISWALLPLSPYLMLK
The experiment in a line: FACS on MDA-MB-468 cells; in the drawn table the number stands under the head 'Maximum MFI' (the two heads are interchanged); the head says nM, the axis of the curve µg/mL.

The target of assay [3] is T2, human B7H4 on the cell surface. The experiment in a line: FACS, CHOK1/hu B7H4 cells. As to the method: (§1) This example is intended to investigate the in vitro binding activity of anti-human B7H4 H2L2 monoclonal antibody to human/cynomolgus monkey/mouse B7H4. Antibody binding experiments at the cellular level were performed using CHOK1 cell line overexpressing human B7H4 (CHOK1/hu B7H4, Harbour BioMed), CHOK1 cell line overexpressing cynomolgus monkey B7H4 (CHOK1/cyno B7H4, Harbour BioMed), CHOK1 cell line overexpressing mouse B7H4 (CHOK1/m B7H4, Harbour BioMed) and SK-BR-3 cell line (ATCC® HTB-30) highly expressing human B7H4. Briefly, CHOK1/hu B7H4 cells, CHOK1/cyno B7H4 cells, CHOK1/m B7H4 cells or SK-BR-3 cells were digested and resuspended with PBS containing 2% BSA. The cell density was adjusted to 1×10⁶ cells/mL. The cells were seeded in a 96-well V-bottom plate (Corning, #3894) at 100 μL/well, followed by the addition of test antibodies diluted in a 3-fold concentration gradient of 2 times the final concentration, each at 100 μL/well. The cells were incubated at 4° C. for 2 h away from light. Thereafter, the cells in each well were rinsed twice with 100 μL of pre-cooled PBS containing 2% BSA, and centrifuged at 500 g at 4° C. for 5 min, and then the supernatant was discarded. Then 100 μL of a fluorescent secondary antibody (Alexa Fluor 488-conjugated AffiniPure Goat Anti-Human IgG, Fcγ Fragment Specific, Jackson, #109-545-098, 1:500 diluted) was added to each well. The plate was incubated away from light at 4° C. for 1 h. The cells in each well were washed twice with 100 μL of pre-cooled PBS containing 2% BSA, and centrifuged at 500 g at 4° C. for 5 minutes, and then the supernatant was discarded. Finally, the cells in each well were resuspended with 200 μL of pre-cooled PBS containing 2% BSA, and the fluorescence signal values were read using an ACEA Novocyte3000 flow cytometer.

Assay [4] concerns the target T3, mouse B7H4 on the cell surface (mouse, UniProt Q7TSP5 25-257).
T3 construct: whole, on cells; also called CHOK1/m B7H4
T3 sequence (looked up): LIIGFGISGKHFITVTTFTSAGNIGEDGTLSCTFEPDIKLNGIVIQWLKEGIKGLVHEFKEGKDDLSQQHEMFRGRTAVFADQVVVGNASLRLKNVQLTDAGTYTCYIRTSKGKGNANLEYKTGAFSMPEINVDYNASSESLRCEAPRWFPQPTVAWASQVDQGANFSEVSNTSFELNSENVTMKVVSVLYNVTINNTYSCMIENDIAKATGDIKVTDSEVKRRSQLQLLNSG
The experiment in a line: FACS, CHOK1/m B7H4 cells. On the procedure: as §1, with “Then 100 μL of a fluorescent secondary antibody (Alexa Fluor 488-conjugated AffiniPure Goat Anti-Human IgG, Fcγ Fragment Specific, Jackson, #109-545-098, 1:500 diluted) was added to each well. The plate was incubated away from light at 4° C. for 1 h. The cells in each well were washed twice with 100 μL of pre-cooled PBS containing 2% BSA, and centrifuged at 500 g at 4° C. for 5 minutes, and then the supernatant was discarded.” left out
For orientation: In flow cytometry, cells or beads pass a laser one at a time.

B1: Control antibody 1 (PR000157) (antibody, V domains shown)
VH: EVQLVQSGAEVKKPGASVKVSCKASGYTFTSYWIGWVRQAPGQGLEWIGDIYPGGGYTNYNEKFKGRVTITRDTSTSTAYLELSSLRSEDTAVYYCARLAGSSYRGAMDSWGQGTLVTVSS
VL: DIQMTQSPSSLSASVGDRVTITCKASQGFNKYVAWYQQKPGKAPKLLIYYTSTLQPGVPSRFSGSGSGRDYTLTISSLQPEDFATYYCLQYGDLLYAFGQGTKVEIKR
notes: Anti-B7H4 IgG1 control antibody from WO2016040724A1; also called 1D11.v1.9varC2
For the molecule B1, the “Competitive inhibition rate (%)” value in assay [1] was determined as 1.97%. Also, the EC50 is 0.194 nM in assay [2], 1.94 nM in assay [3] and 1.38 nM in assay [4]. In addition, the “Maximum MFI” value worked out at 1.84e+06 MFI in assay [3] and 858000 MFI in assay [4].
